In the DeepSol protein solubility set:

Test: soluble on expression in E. coli; label from the status in PepcDB or PDB records

Soluble on expression in E. coli, not soluble:
MGSDKIHHHHHHMAKFKIEIDSETCLGYKECGLCVSACEESIIVPDEKTGKVKVDKTREINCDGLGACLDVCPVGALKITSESGFSCGGHSGNPCPGSAVKSFNRSEQRSEMLQNKETESELLNWPVQLHLLNPNASYFKNADLIIAADCVPFAYPDFHNNLLKGKVLAIACPKLDDTKDYMLKIRQIVEKNNIKNVTVAIMTVPCCSGLYSLVNRALDGLDVNITKKVISLDGKLMD
MSRVKNVVELLETKGVDALYLTKKTNVNYISGFPDEEAYAVICKDGNFLVTDSRYMELAEKVCKDFEIINWHNFDRSVAKAVKSVCDKVGIKKLGFERTNIVFDKYEELKNLIEKDNGELIPTENIVETLRYVKDKDEIKNTRKACEIADKALEELIPHIKAGVSEIELATKLEYFMKMNGAQNIGFETILISGAKTSLLHGKPSDKIIEKGDFVLIDYGAMYNGYISDTTRTFIVGGASEKQLEIYNLVKEAQNVGVENMKAGVHATIPDAEIRKVVKKYEDYYYQGIGHGVGRDVHEEPFIGNYGDKIIEEGCIITMEPGIYFPGWGGVRIEDTVLITKNGPERLTKFPKDLMILDK
MGSDKIHHHHHHMNVAERKKQTVVSSGISGLDEILRGGLPASNLYIVQGAPGSGKTTAALQFLRAGVALGEPCIYVSLSQTRAELEAIALSHGWTLDGIRVEELSASDSINRAADQTIFQTTELRLDETRKAIESAIEEHKPSRLVYDSLLEIRLITADSPRFRRELIAFKAFLAQRNIVALLLDTQTSETDRTGEEVDGIAHGVIRLDKSLEEYGGVRRRIEVSKMRGVPVADGYHDMAIREGEGVVVFPRIVPGAAARTVKPQLIKSGVDTLDEMFGGGQESGTTTLVIGQAGTGKSTMASLYATAALKRGESVGLFLFEERIETFFRRSEGLGMALRQFHEDGQLILRDFNPNEISPGEFGQIVQQSVNSEKVKVVVIDSFTGYLNSLPHREKAVRDIQSLLKYLARAGVLTILIVAQHGLLGQGVGIDVDVSFLGDTVLLLRIAEHEGRLRRSITVVKKRHGPHDLDVRELFIQSSGVSVIAYNPLPEV
MGKTQEFLRLRRIIALSSLLASRKSAMCLAVLALHAIPGLPVLIAANRDEFHARPTAEATRWPGSPAIYAGRDLQAGGTWLGVSDQGRYAVVTNFRDPRNIQPDAPSRGALVEAFLRGAASAQEYLRDVHARGARYNGFNLIVGDAGGAWYCSNRDGAPQRLAAGVYALSNHLLDTPWPKLARTKAAFERIIAATPQPDLAALYAALADPTPAADHELPATGLALERERLLSSPFIVSPDYGTRSACILALHDDGRGELHERRFRPDGAIAGQADLDFPWRAARAELHRASCVLEHHHHHH
MGSDKIHHHHHHLYVPLLIRQQYIRSGPDYRFSEPVSFLDIKQTFGFSHVRVGRWVTREESRIAANLVFDSLADLAFILKLPPLTLGLRQTLSLAFGHGGQKGVQAHYAPATRELALAKNAGAGALAHEFWHAFDHYIAPKAFNLSEGHFLCASDLWLADSPLIKHPLNLRLSEIFKVTLLSPDGKEPSDYVRRALALDKRYGTRYFSQPTEMMARAFEACIESYRDISNPYLVSGTSFSAMAKEGAYPDELHRQRIFTALLDYFEPLGIALAK
MTLDANSAPVRDMASAHFSPGEDCRRKIRDLCRQARISVDICVFTISDDQLSDEIRACHQRGVAVRVISDSEKQFDVGSDIAALREAGVPVRIDDTPFHMHHKFAVFDGRTLLNGSFNWTRSATTGNEENLLVIDHPQLVASYLKEFNELWSRYAPRLEHHHHHH
MGSDKIHHHHHHGSITVILGPMFSGKTTELLRLHDRQIIAKRTCVLVKYAGDTRYDADLVATHSKMTGQGRTVKAHRLSEVQSQIFNDEVQVVSIDEGQFFEDLAETCEELAQRGKVVCVAALNGTFERKPFPQISLLLPYANEIKQVTAVCVECGSQANFSFRSTLDKKVEVIGGSDTYTALCRECY
MVRVYIGRLPNRASDRDVEHFFRGYGKLSDVIMKNGFGFVDFQDQRDADDAVHDLNGKELCGERVILEFPRRKVGYNEERSGSGFRGREPTFRKGGERQFSNRYSRPCSTRFRLVIDNLSTRYSWQDIKDHIRKLGIEPTYSEAHKRNVNQAIVCFTSHDDLRDAMNKLQGEDLNGRKLKCTDETRDRSRSRSPRRRSRSRSPTRSRSPPARRRSPGSDRSDRKSRSASPKKRSDKRARSESKSRSRSGGRRSRSNSPPNRSPSPKKRRDNSSPRSGSASP
MSLDKQNHKIFEILADKVSAKDNVITASGNAILLNYDVYILADKVRYDTKTKEALLEGNIKVYRGEGLLVKTDYVKLSLNEKYEIIFPFYVQDSVSGIWVSADIASGKDQKYKVKNMSTSGCSIDNPIWHVNATSGSFNMQKSHLSMWNPKIYVGDIPVLYLPYIFMSTSNKRTTGFLYPEFGTSNLDGFIYLQPFYLAPKNSWDMTFTPQIRYKRGFGLNFEARYINSKNDRFLFNARYFRNYTQYVKRYDLRNQNIYGFEFLSSSRDTLQKYFHLKSNIDNGHYIDFLYMNDLDYVRFEKVNKRITDATHMSRANYYLQTENNYYGLNIKYFLNLNKINNNRTFQSVPNLQYHKYLNSLYFRNLLYSVDYQFRNTAREIGYGYVQNALNVPVGLQFSLFKKYLSLGLWNDLQLSNVALMQSKNSFVPTIPNESREFGNFVSSNFSMYVNTDLAREYNKLFHTIQLEAIFNIPYYTFKNGLFSQNMYALSAQALNSYTSPLLRDYDYQGRLYDSVWNPSSILPSNASNKTVDLTLTQYLYGLGGQELLYFKISQLINLDDKVSPFRMPLESKIGFSPLTGLNIFGNVFYSFYQNRLEEISVNANYQRKFLSFNLSYFLKNNFSSGINSIVENEGHHHHHH
MCVNFIPPSRGQLREWLGCDPGDGQWPDEAWQDYPAPILTRDGLRFASYGFIPKRHQPAGVRLSTMNARVETIGQLRSYRDAWRNCQLCLVPMQAFYEPCYESGRAVRTKISMADGAPFAVAGLWREWREADGSISLAFTQITIHADGHAVMGRMHRPGDEKRSLAIIPAALYQAWLHCRNPEQARAFLQLFSAEAMRAEGEIADPPRQGSLFDLEHHHHHH
MTTTIEVGMLGLGTVGSGVVERLTRSAAKIEQTQGIRLHLAAVAVNHLNAPRTVQLPIGTRLTDSLTNVVCDRKIQLVIEVMGTVATAKKAIVAALNQGKAVVTANKDLIATAGPELAALAKKQGCDLFYEASVAGGIPILRTLTDSYVTDNVQAVSGIINGTANYMLSAMATGQSYEQALATAQATGYAEADPTNDVAGIDAAYKLMILSRFAFGQELSLPQIAPTGITHLSASVCRLAAENGWQIKLLAQIQRHGSGLYCRVAPVAVPVDQPLSQINGVQNAVAVQSEAIGTSLYTGPGAGSTATANSVLNDVLVAAKHLINGYRMIRNQKRSVSLTVTRFDQLPQTYLGIGPVAPEAVKYYANEADFSVKTIADDCYQITGLSAVKRKKLRANLPLTLIPIAGTTDWKQVTENSITSPINVAI

Soluble on expression in E. coli, soluble:
MVLVLAEIITVGDELLTGNTVDSNSAYIAQRLTEKGFWVRRITTVGDDVKEIENAVREAISRKPEVLIISGGLGPTHDDVTMLGVANAIGRKLKLCEDCLERIKEFYEELHRKGLIDDPTLNEARKKMAYLPEGSEPLNNTEGAAPGAYVEYEGVKIFILPGMPREMKAMLESEVLPRLGERKFVQKKFLAEITDESKLAPILEDTIERFKVKIHSSPKGFGKYIGIIIFAEDDEVIGKVIRYIEGKGIKFREGW
MGSDKIHHHHHHETRECIYYNANWELERTNQSGLERCEGEQDKRLHCYASWRNSSGTIELVKKGCWLDDFNCYDRQECVATEENPQVYFCCCEGNFCNERFTHLPEPG
MSLRWQWRIYEEPLQEPLTTAQGVWRSRSGIYLRLEDEQGQVGYGEIAPLPGWGSETLNADIALCQQLPGHLTPEIMATIPEALPAAQFGFATAWQSVGRLPYRVRPWPICALLGSGQAALEQWQQSWQRGQTTFKWKVGVMSPEEEQAILKALLAALPPGAKLRLDANGSWDRATANRWFAWLDRHGNGKIEYVEQPLPPDQWQALLSLAQTVTTAIALDESVVSAAEVQRWVDRGWPGFFVIKTALFGDPDSLSLLLRRGLEPQRLVFSSALEGAIARTAIFHLLETWQPCHALGFGVDRWRSAPLLTTLTAYERLWERLDQGHHHHHH
MEFMSAPANAVAADDATAIALKYNQDATKSERVAAARPGLPPEEQHCANCQFMQADAAGATDEWKGCQLFPGKLINVNGWSASWTLKAG
MSTGDSFETRFEKMDNLLRDPKSEVNSDCLLDGLDALVYDLDFPALRKNKNIDNFLSRYKDTINKIRDLRMKAEDYEVVKVIGRGAFGEVQLVRHKSTRKVYAMKLLSKFEMIKRSDSAFFWEERDIMAFANSPWVVQLFYAFQDDRYLYMVMEYMPGGDLVNLMSNYDVPEKWARFYTAEVVLALDAIHSMGFIHRDVKPDNMLLDKSGHLKLADFGTCMKMNKEGMVRCDTAVGTPDYISPEVLKSQGGDGYYGRECDWWSVGVFLYEMLVGDTPFYADSLVGTYSKIMNHKNSLTFPDDNDISKEAKNLICAFLTDREVRLGRNGVEEIKRHLFFKNDQWAWETLRDTVAPVVPDLSSDIDTSNFDDLEEDKGEEETFPIPKAFVGNQLPFVGFTYYSNRRYL
SPLHVSLANGNRDLDYDSVQPYFMCDDEEEDVHHQQPPQPPAPSEDIWKKFELLPTPRPSPGHAGLYSPPCEAVAVSFAPRDHDGDSFSIADLPELPGGDAVKQSFVCDPDDETFVKNIILQDCMWNGFSASAKLVSKLDPYQAVRKEGTGVSLAADVEPATPPDCTCNT
MAVASTSTSDGMLTLDLIQEEDPSPEEPTSCAESFRVDLDKSVAQLAGSRRRADSDRIQPSADRASSLSRPWEKTDKGATYTPQAPKKLTPTEKGRCASLEEILSQRDAASARTLQLRAEEPPTPALPNPGQLSRIQDLVARKLEETQELLAEVQGLGDGKRKAKDPPRSPPDSESEQLLLETERLLGEASSNWSQAKRVLQEVRELRDLYRQMDLQTPDSHLRQTTPHSQYRKSLM
MSVAGLKKQFHKASQLFSEKISGAEGTKLDEEFLNMEKKIDITSKAVAEILSKATEYLQPNPAYRAKLGMLNTVSKLRGQVKATGYPQTEGLLGDCMLKYGKELGEDSAFGNSLVDVGEALKLMAEVKDSLDINVKQTFIDPLQLLQDKDLKEIGHHLRKLEGRRLDYDYKKRRVGKIPEEEIRQAVEKFEESKELAERSMFNFLENDVEQVSQLAVFVEAALDYHRQSTEILQELQSKLELRISLASKVPKREFMPKPVNMSSTDANGVGPSSSSKTPGTDTPSDQPCCRGLYDFEPENEGELGFKEGDIITLTNQIDENWYEGMLRGESGFFPINYVEVIVPLPP
MTTQAPTFTQPLQSVVVLEGSTATFEAHISGFPVPEVSWFRDGQVISTSTLPGVQISFSDGRAKLTIPAVTKANSGRYSLKATNGSGQATSTAELLVKAETAPPNFVQRLQSMTVRQGSQVRLQVRVTGIPTPVVKFYRDGAEIQSSLDFQISQEGDLYSLLIAEAYPEDSGTYSVNATNSVGRATSTAELLVQGETREEF
MLVLIRVFNTLGRRKEVFNPYSPPLVGMYVCGPTVYDYTHIGHARTFTVFDAIKRYLRLRGYDVFHVQNITDIDDKIINRAREEGRDWREIVREYSRDYLEGLGSLGIQIDHHPRVTDHISDIIRFIEGLIEKGYAYVAESGSVYFEVDKYPGYGMLSGHLSKEAWRQEEDVLHEKKSPYDFALWKAAKPGEPSWESPWGRGRPGWHIECSVMSSRYLGSRIDIHGGGVDLVFPHHENERAQSESYFGHRWVRYWLHASYLTIKGEKMSKSLGNIIPLREALREWGPGPLRLWLLSSHYRSNLDYSEEALGQYRRLYERLRQAADSIGRRLERAEPKGRLGEGELETVERLKGVVRRWHEAMSDDFNMGKAMSSLWEFTTIYFREVEQTESYTLLWLSWRILTGFNSVYAFAPDIVEARRPERSLEDSLVQALVDVRSELRRRKMYDLADEIRSRLAQLGFVLHDKGEKTEWRRR
